Experimental data published in patent US20120324600A1, “CONSTITUTIVE SYNTHETIC PLANT PROMOTERS AND METHODS OF USE” (SYNGENTA PARTICIPATIONS AG, priority 2010, published 2012).

Test system: transgenic corn events
Assay: Glyphosate phytotoxicity (percent injury) of transgenic corn events carrying promoter-EPSPS cassettes
Assay type: in vivo
Settings: maize; for efficiency in promoting expression of an operably linked heterologous sequence compared with unmodified cestrum virus promoter: EPSPS gene, glyphosate tolerance
Excerpt: SEQ ID NO: 8 was synthesized by Gene Art as a SanDI/BamHI fragment then ligated directly into a cloning vector harboring the EPSPS gene (cZmEPSPSct-01) to confer glyphosate tolerance (Terada, et al., (1995) A type I element composed of the hexamer (ACGTCA) and octamer (CGCGGATC) motifs plays a role(s) in meristematic expression of a wheat histone H3 gene in transgenic rice plants. Plant Molecular Biology 27: 17-26). SEQ ID NO: 9 was created by ligation of the xZmH3Cis DNA elements to the prCMP promoter as an NheI fragment such that these elements are 5′ to the TATA-BOX (Brignon, et al., (1993) Nuclease sensitivity and functional analysis of a maize histone H3 gene promoter. Plant Molecular Biology 22: 1007-1015).
See Table 9 for glyphosate phytotoxicity, in terms of percent injury. Plants were sprayed with an appropriate amount of glyphosate (i.e. 4× Touchdown®) at the V4 stage and the V8 stage. Percent injury was measured at 7 and 14 days after the V4 stage glyphosate spray, as well as 7 and 14 days after V8 stage glyphosate spray.

B1: SEQ ID NO: 8: synthetic plant promoter for maize, subelements eFMV, e35S, prTaHisH3, eTMV; 834 bp (nucleic acid)
DNA: AGCTGCTTGTGGGGACCAGACAAAAAAGGAATGGTGCAGAATTGTTAGGCGCACCTACCAAAAGCATCTTTGCCTTTATTGCAAAGATAAAGCAGATTCCTCTAGTACAAGTGGGGAACAAAATAACGTGGAAAAGAGCTGTCCTGACAGCCCACTCACTAATGCGTATGACGAACGCAGTGACGACCACAAAACTCGAGACTTTTCAACAAAGGGTAATATCCGGAAACCTCCTCGGATTCCATTGCCCAGCTATCTGTCACTTTATTGTGAAGATAGTGGAAAAGGAAGGTGGCTCCTACAAATGCCATCATTGCGATAAAGGAAAGGCTATCGTTGAAGATGCCTCTGCCGACAGTGGTCCCAAAGATGGACCCCCACCCACGAGGAGCATCGTGGAAAAAGAAGACGTTCCAACCACGTCTTCAAAGCAAGTGGATTGATGTGATATCTCCACTGACGTAAGGGATGACGAACAATCCCACTATCCTTCTGCCGGACCCAAGCTTTCGGCCACGTCACCAATCCGCGGCATTCCTACCCGGATCGCCATCTCGACCGTCCACTCCATCCGCATCCAACGGCAAGTACATGCCTCTCGTCCCCTCCCGAAAAACCAAAACCCAAACCCGCCCGCTCTCTCGGTGCTCCTCCTATTTAACTCCGCCCCGTCCCCTTCTTCCTCCTCACCCCAATCTCCCCAGCCCCCAACCACCAGAGCCTCCTCCTCCCCTCCGGCGCATCGACGACAAGGGATCCACCTCGAGTATTTTTACAACAATTACCAACAACAACAAACAACAAACAACATTACAATTACTATTTACAATTACACATGTAAACC
modifications: synthetic plant promoter
notes: synthetic plant promoter for maize, subelements eFMV, e35S, prTaHisH3, eTMV; 834 bp
  evidence of HDGS and HDMS: no evidence of HDGS and HDMS
  efficiency in promoting expression of an operably linked heterologous sequence compared with unmodified cestrum virus promoter: function at least as well on average as the unmodified cestrum virus promoter
Listed as 8
  efficiency in promoting expression of an operably linked heterologous sequence compared with unmodified cestrum virus promoter: as efficient in promoting the expression of an operably linked heterologous sequence as an unmodified cestrum virus promoter
